Results reported in PMC10681739, “High-throughput data and modeling reveal insights into the mechanisms of cooperative DNA-binding by transcription factor proteins”.

Biological target: T1, ETS1 (Homo sapiens, UniProt P14921)
T1 sequence: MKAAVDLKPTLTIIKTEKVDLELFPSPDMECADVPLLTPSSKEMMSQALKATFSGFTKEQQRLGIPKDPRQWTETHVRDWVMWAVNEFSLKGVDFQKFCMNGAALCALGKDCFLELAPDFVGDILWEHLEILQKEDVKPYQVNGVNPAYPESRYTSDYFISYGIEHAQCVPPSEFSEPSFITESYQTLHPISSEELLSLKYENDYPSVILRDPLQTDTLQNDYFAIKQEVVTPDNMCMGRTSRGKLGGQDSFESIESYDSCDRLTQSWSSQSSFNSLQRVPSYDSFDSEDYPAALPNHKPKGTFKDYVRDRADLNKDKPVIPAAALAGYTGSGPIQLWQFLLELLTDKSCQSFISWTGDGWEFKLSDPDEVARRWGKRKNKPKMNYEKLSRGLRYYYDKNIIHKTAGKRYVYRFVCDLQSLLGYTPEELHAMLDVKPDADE
Assay: gcPBM; 1 nM ETS1
Details: tags: N-terminal GST (pDEST15), kept (PMC6008103); label: surface-attached array probe

B1: Table S2 B row 753 (dsDNA)
DNA 1: AGGGACTTCCGGTGACCAGAGCACTAGCGCCGTAAA
DNA 2: TTTACGGCGCTAGTGCTCTGGTCACCGGAAGTCCCT
B1 was tested, and the binding signal was 55700 PBM fluorescence, median of replicate spots.

B2: Table S2 B row 1649 (dsDNA)
DNA 1: CCCCCACATCCTGTTTGGTTAGTGGGACACCTCAAC
DNA 2: GTTGAGGTGTCCCACTAACCAAACAGGATGTGGGGG
In the case of B2, the binding signal is reported as 23400 PBM fluorescence, median of replicate spots.

B3: Table S2 B row 4071 (dsDNA)
DNA 1: ATGGAAATGTCGTTAAGAACTTCCTCTTTTACTAGA
DNA 2: TCTAGTAAAAGAGGAAGTTCTTAACGACATTTCCAT
For B3, the binding signal was 2700 PBM fluorescence, median of replicate spots.

B4: Table S2 B row 1755 (dsDNA)
DNA 1: CAGAAAGAGGAAATGATGCGAGTCCACACCGAAGGC
DNA 2: GCCTTCGGTGTGGACTCGCATCATTTCCTCTTTCTG
B4 was tested, and the binding signal was 2640 PBM fluorescence, median of replicate spots.

B5: Table S2 B row 606 (dsDNA)
DNA 1: TCCGGAAGTCGGAGGAACACCCCAGCCGGCGCAGCC
DNA 2: GGCTGCGCCGGCTGGGGTGTTCCTCCGACTTCCGGA
With B5 the binding signal was 2610 PBM fluorescence, median of replicate spots.

B6: Table S2 B row 3457 (dsDNA)
DNA 1: CCACTGCCGGAAGGGGAACTCTGGGGGTGCGCGAGT
DNA 2: ACTCGCGCACCCCCAGAGTTCCCCTTCCGGCAGTGG
With B6 the binding signal was 2580 PBM fluorescence, median of replicate spots.

B7: Table S2 B row 2398 (dsDNA)
DNA 1: GCTTTGCAGTTTCCTCTATGGAACACCAGACACAGT
DNA 2: ACTGTGTCTGGTGTTCCATAGAGGAAACTGCAAAGC
With B7 the binding signal was 2540 PBM fluorescence, median of replicate spots.

B8: Table S2 B row 56 (dsDNA)
DNA 1: CAGAGAAACAGGAAGAACAGTGCTTTCAACTGAAAT
DNA 2: ATTTCAGTTGAAAGCACTGTTCTTCCTGTTTCTCTG
For B8, the binding signal was 2500 PBM fluorescence, median of replicate spots.

B9: Table S2 B row 1848 (dsDNA)
DNA 1: TCCCGGGGAGGAAGTGGCGAGAATTCGGGGGTGGGC
DNA 2: GCCCACCCCCGAATTCTCGCCACTTCCTCCCCGGGA
For B9, the binding signal was 2460 PBM fluorescence, median of replicate spots.

B10: Table S2 B row 3568 (dsDNA)
DNA 1: GAACCCCAAGTTCCGGCTGGCACTGCGCCGGAGCCT
DNA 2: AGGCTCCGGCGCAGTGCCAGCCGGAACTTGGGGTTC
With B10 the binding signal was 2450 PBM fluorescence, median of replicate spots.

B11: Table S2 B row 1511 (dsDNA)
DNA 1: GCACCGTGGCACTTCCGCGAGCGCCGCTGGCCCTGC
DNA 2: GCAGGGCCAGCGGCGCTCGCGGAAGTGCCACGGTGC
B11 was tested, and the binding signal was 2410 PBM fluorescence, median of replicate spots.

B12: Table S2 B row 1838 (dsDNA)
DNA 1: GTACGTTTCCTCATTGACTGGCCAACGACTATCATG
DNA 2: CATGATAGTCGTTGGCCAGTCAATGAGGAAACGTAC
In the case of B12, the binding signal is reported as 2340 PBM fluorescence, median of replicate spots.

B13: Table S2 B row 2632 (dsDNA)
DNA 1: TACGTCACTTCCGGGCCGCCGTCCTGCAGGCAAGGG
DNA 2: CCCTTGCCTGCAGGACGGCGGCCCGGAAGTGACGTA
With B13 the binding signal was 21800 PBM fluorescence, median of replicate spots.

B14: Table S2 B row 618 (dsDNA)
DNA 1: GCGCAAGGATCCGGTTTGTTCTGGTGTGGGGAGGGG
DNA 2: CCCCTCCCCACACCAGAACAAACCGGATCCTTGCGC
For B14, the binding signal was 2310 PBM fluorescence, median of replicate spots.

B15: Table S2 B row 3693 (dsDNA)
DNA 1: ACCAAAACACATCCTGGGGCCCCTCACAATTAGTGA
DNA 2: TCACTAATTGTGAGGGGCCCCAGGATGTGTTTTGGT
For B15, the binding signal was 2280 PBM fluorescence, median of replicate spots.

B16: Table S2 B row 1261 (dsDNA)
DNA 1: ACTCCAGAGGAAGTGGCAAGACGAGCGCGGCAACGG
DNA 2: CCGTTGCCGCGCTCGTCTTGCCACTTCCTCTGGAGT
With B16 the binding signal was 2240 PBM fluorescence, median of replicate spots.

B17: Table S2 B row 3076 (dsDNA)
DNA 1: AGGCCTCGCTTCCTCTCCTGAGCACACCCTGCAGCT
DNA 2: AGCTGCAGGGTGTGCTCAGGAGAGGAAGCGAGGCCT
With B17 the binding signal was 2200 PBM fluorescence, median of replicate spots.

B18: Table S2 B row 1406 (dsDNA)
DNA 1: GCACACACACATCCTCCCGGCCCGGCCGCCGCCGCT
DNA 2: AGCGGCGGCGGCCGGGCCGGGAGGATGTGTGTGTGC
B18 was tested, and the binding signal was 2180 PBM fluorescence, median of replicate spots.

B19: Table S2 B row 3748 (dsDNA)
DNA 1: GATTCATATCCTCCTCTATGCAACGACAGCATCTTC
DNA 2: GAAGATGCTGTCGTTGCATAGAGGAGGATATGAATC
In the case of B19, the binding signal is reported as 2160 PBM fluorescence, median of replicate spots.

B20: Table S2 B row 1905 (dsDNA)
DNA 1: ACTTCCAGGAAGCCCCATAGTCCAGAAACCTACACA
DNA 2: TGTGTAGGTTTCTGGACTATGGGGCTTCCTGGAAGT
In the case of B20, the binding signal is reported as 2110 PBM fluorescence, median of replicate spots.

B21: Table S2 B row 1285 (dsDNA)
DNA 1: TTAAACACGGAAGTGCATCGGTTGTTGTAGTTATTC
DNA 2: GAATAACTACAACAACCGATGCACTTCCGTGTTTAA
B21 was tested, and the binding signal was 2090 PBM fluorescence, median of replicate spots.

B22: Table S2 B row 528 (dsDNA)
DNA 1: CGAACTACATCCTCTGAGGTGTAGCTTTTTGGCCTG
DNA 2: CAGGCCAAAAAGCTACACCTCAGAGGATGTAGTTCG
For B22, the binding signal was 2040 PBM fluorescence, median of replicate spots.

B23: Table S2 B row 2614 (dsDNA)
DNA 1: GGCTTCCGCGCCTGCAGAACTACAGCTCCCAGAAGG
DNA 2: CCTTCTGGGAGCTGTAGTTCTGCAGGCGCGGAAGCC
For B23, the binding signal was 2000 PBM fluorescence, median of replicate spots.

B24: Table S2 B row 3942 (dsDNA)
DNA 1: GAAATTTCCGCTTTCTTTCTGCAGCAGGAACCTCGG
DNA 2: CCGAGGTTCCTGCTGCAGAAAGAAAGCGGAAATTTC
With B24 the binding signal was 21200 PBM fluorescence, median of replicate spots.

B25: Table S2 B row 2348 (dsDNA)
DNA 1: CAAAAGTGCTTCCTCTCGAGGGGTTGTAGTTCTTAC
DNA 2: GTAAGAACTACAACCCCTCGAGAGGAAGCACTTTTG
In the case of B25, the binding signal is reported as 1960 PBM fluorescence, median of replicate spots.

B26: Table S2 B row 2482 (dsDNA)
DNA 1: TGCGACGGAAGCAGGAACTTGCTAACTACAAAACCC
DNA 2: GGGTTTTGTAGTTAGCAAGTTCCTGCTTCCGTCGCA
In the case of B26, the binding signal is reported as 1960 PBM fluorescence, median of replicate spots.

B27: Table S2 B row 992 (dsDNA)
DNA 1: TATCGACAAAAGTTCCGGCCCGCGGCAGCGGAGGGA
DNA 2: TCCCTCCGCTGCCGCGGGCCGGAACTTTTGTCGATA
B27 was tested, and the binding signal was 1930 PBM fluorescence, median of replicate spots.

B28: Table S2 B row 269 (dsDNA)
DNA 1: AGAAAAGGAAATGGTGGGCTGCACACCCCAGCTCAC
DNA 2: GTGAGCTGGGGTGTGCAGCCCACCATTTCCTTTTCT
B28 was tested, and the binding signal was 1890 PBM fluorescence, median of replicate spots.

B29: Table S2 B row 1694 (dsDNA)
DNA 1: CCCTTCCTGAGGGCAAGGCGAGGGCACCTACAGCCT
DNA 2: AGGCTGTAGGTGCCCTCGCCTTGCCCTCAGGAAGGG
B29 was tested, and the binding signal was 1830 PBM fluorescence, median of replicate spots.

B30: Table S2 B row 1819 (dsDNA)
DNA 1: CCGATTTCCCCGGACGTGGTGAGACGGCGCTTCGTC
DNA 2: GACGAAGCGCCGTCTCACCACGTCCGGGGAAATCGG
B30 was tested, and the binding signal was 1790 PBM fluorescence, median of replicate spots.

B31: Table S2 B row 591 (dsDNA)
DNA 1: CACCTCCTACTTCCCCCCGCTGATAACTACCAACCC
DNA 2: GGGTTGGTAGTTATCAGCGGGGGGAAGTAGGAGGTG
For B31, the binding signal was 1740 PBM fluorescence, median of replicate spots.

B32: Table S2 B row 1696 (dsDNA)
DNA 1: CTCATCAGTCATCCGGCTGGACTGCAGGAGCTCTCC
DNA 2: GGAGAGCTCCTGCAGTCCAGCCGGATGACTGATGAG
In the case of B32, the binding signal is reported as 1700 PBM fluorescence, median of replicate spots.

B33: Table S2 B row 713 (dsDNA)
DNA 1: CCCTTCCGCGTGGGTTGCACCTGCTAATCACAGAGC
DNA 2: GCTCTGTGATTAGCAGGTGCAACCCACGCGGAAGGG
With B33 the binding signal was 1660 PBM fluorescence, median of replicate spots.

B34: Table S2 B row 1455 (dsDNA)
DNA 1: AGTGAGCTTCCTCCTGAGGCCTGAGGCAACCCCAGG
DNA 2: CCTGGGGTTGCCTCAGGCCTCAGGAGGAAGCTCACT
With B34 the binding signal was 1620 PBM fluorescence, median of replicate spots.

B35: Table S2 B row 1858 (dsDNA)
DNA 1: TGGCTTCCTGTCTGTCCTTCATCAGCCCAGAGAGGC
DNA 2: GCCTCTCTGGGCTGATGAAGGACAGACAGGAAGCCA
In the case of B35, the binding signal is reported as 20600 PBM fluorescence, median of replicate spots.

B36: Table S2 B row 1189 (dsDNA)
DNA 1: TCCAGCGGAAGGGGGCATCTTTACGGCAGAGGCAGC
DNA 2: GCTGCCTCTGCCGTAAAGATGCCCCCTTCCGCTGGA
B36 was tested, and the binding signal was 1600 PBM fluorescence, median of replicate spots.

B37: Table S2 B row 1194 (dsDNA)
DNA 1: TGAGTTTTGTTTCCGATTCACCTCAGAAGATACTTT
DNA 2: AAAGTATCTTCTGAGGTGAATCGGAAACAAAACTCA
For B37, the binding signal was 1570 PBM fluorescence, median of replicate spots.

B38: Table S2 B row 4047 (dsDNA)
DNA 1: CCGCTCTTCCTGGAGGTCTCTTGGCCGCTCACCCTC
DNA 2: GAGGGTGAGCGGCCAAGAGACCTCCAGGAAGAGCGG
B38 was tested, and the binding signal was 1540 PBM fluorescence, median of replicate spots.

B39: Table S2 B row 3763 (dsDNA)
DNA 1: GCGCCCCGTCCTTCCGCAGCCCAAGCGCCTCTTCCC
DNA 2: GGGAAGAGGCGCTTGGGCTGCGGAAGGACGGGGCGC
For B39, the binding signal was 1510 PBM fluorescence, median of replicate spots.

B40: Table S2 B row 2334 (dsDNA)
DNA 1: CCCCTCGCCCTTCCGCATTGCGTGTTACTTCGGTTG
DNA 2: CAACCGAAGTAACACGCAATGCGGAAGGGCGAGGGG
B40 was tested, and the binding signal was 1460 PBM fluorescence, median of replicate spots.

B41: Table S2 B row 1424 (dsDNA)
DNA 1: TGCTTGTCCGGTGGCTGCTGCGCTGCCGAAACGAAT
DNA 2: ATTCGTTTCGGCAGCGCAGCAGCCACCGGACAAGCA
With B41 the binding signal was 1420 PBM fluorescence, median of replicate spots.

B42: Table S2 B row 2289 (dsDNA)
DNA 1: GAGGAAAGGAAGTCAAGGCCAGGGCCGAAGAGGCCA
DNA 2: TGGCCTCTTCGGCCCTGGCCTTGACTTCCTTTCCTC
With B42 the binding signal was 1410 PBM fluorescence, median of replicate spots.
